The record followed here is US20240343798A1 (GV20 THERAPEUTICS, published 2024).

To fix the notation:
T1: recombinant human IGSF8 extracellular domain tagged by a human Fc region (IGSF8-hFc) (human, UniProt Q969P0 28-579)
T1 construct: extracellular domain; also called IGSF8-Fc; IGSF8 hFc fusion protein; not shown: human Fc region
T1 sequence (looked up): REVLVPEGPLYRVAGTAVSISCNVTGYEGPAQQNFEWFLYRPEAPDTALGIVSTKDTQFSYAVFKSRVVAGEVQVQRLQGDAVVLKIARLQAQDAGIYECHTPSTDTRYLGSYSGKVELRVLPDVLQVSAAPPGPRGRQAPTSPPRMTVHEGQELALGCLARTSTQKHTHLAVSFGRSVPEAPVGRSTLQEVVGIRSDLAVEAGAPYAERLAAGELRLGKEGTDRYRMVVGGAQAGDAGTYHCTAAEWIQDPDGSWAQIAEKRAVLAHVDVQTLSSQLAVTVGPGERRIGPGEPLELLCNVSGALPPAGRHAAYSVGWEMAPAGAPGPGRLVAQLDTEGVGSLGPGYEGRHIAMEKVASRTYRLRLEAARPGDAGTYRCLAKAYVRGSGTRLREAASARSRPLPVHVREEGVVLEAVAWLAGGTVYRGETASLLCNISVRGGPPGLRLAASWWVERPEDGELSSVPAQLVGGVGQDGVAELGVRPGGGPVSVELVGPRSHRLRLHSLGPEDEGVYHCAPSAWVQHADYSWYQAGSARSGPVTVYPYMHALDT

T2: IGSF8 protein without D1 domain (UniProt Q969P0 150-579, limits assumed)
T2 construct: domain: D2-D4 (without D1); also called D24; D2-4
T2 sequence (looked up): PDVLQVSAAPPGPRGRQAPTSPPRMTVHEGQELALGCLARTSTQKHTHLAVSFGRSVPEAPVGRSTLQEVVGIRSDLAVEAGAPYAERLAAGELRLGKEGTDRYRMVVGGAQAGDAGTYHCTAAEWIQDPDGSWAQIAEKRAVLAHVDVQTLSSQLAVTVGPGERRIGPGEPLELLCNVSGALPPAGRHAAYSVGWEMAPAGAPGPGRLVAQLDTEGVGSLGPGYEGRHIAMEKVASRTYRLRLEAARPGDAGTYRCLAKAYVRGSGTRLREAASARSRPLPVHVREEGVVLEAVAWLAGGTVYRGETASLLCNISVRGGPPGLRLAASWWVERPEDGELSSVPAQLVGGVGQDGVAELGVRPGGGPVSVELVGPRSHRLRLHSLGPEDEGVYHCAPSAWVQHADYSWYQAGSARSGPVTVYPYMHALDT

T3: human IGSF8 expressed on the cell surface (human, UniProt Q969P0 28-613)
T3 construct: whole, on cells; Forced expression on CT26, MC38 or K562 cells; endogenous on A431 cells; also called full-length IGSF8
T3 sequence (looked up): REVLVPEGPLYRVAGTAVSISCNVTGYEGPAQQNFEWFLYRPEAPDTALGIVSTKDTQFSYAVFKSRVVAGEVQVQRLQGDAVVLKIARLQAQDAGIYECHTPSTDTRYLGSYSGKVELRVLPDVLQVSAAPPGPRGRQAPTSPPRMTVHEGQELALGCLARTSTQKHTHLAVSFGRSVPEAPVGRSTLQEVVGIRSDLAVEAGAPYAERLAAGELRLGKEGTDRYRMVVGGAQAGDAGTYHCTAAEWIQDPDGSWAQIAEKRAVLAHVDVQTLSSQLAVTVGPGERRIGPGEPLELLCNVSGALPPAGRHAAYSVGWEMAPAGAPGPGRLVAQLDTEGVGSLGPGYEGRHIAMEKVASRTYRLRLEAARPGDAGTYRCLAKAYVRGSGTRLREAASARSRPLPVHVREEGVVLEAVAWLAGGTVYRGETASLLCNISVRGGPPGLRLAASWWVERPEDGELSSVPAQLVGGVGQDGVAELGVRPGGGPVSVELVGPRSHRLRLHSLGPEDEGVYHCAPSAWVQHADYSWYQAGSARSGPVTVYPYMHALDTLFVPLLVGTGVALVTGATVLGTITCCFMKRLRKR

B1: KIR3DL1 D3 construct (receptor, human, UniProt P43629 222-316, looked up)
chain: EKPSLSAQPGPKVQAGESVTLSCSSRSSYDMYHLSREGGAHERRLPAVRKVNRTFQADFPLGPATHGGTYRCFGSFRHSPYEWSDPSDPLLVSVT
notes: domain: D3; On CT26 cells, thy1.1 tag vector; also called D1/D3 construct
B2: KIR3DL2 D3 construct (receptor, human, UniProt P43630 222-316, looked up)
chain: EKPSLSAQPGPTVQAGENVTLSCSSWSSYDIYHLSREGEAHERRLRAVPKVNRTFQADFPLGPATHGGTYRCFGSFRALPCVWSNSSDPLLVSVT
notes: as for B1
B3: D1 domain of IGSF8 protein (ligand, UniProt Q969P0 28-149, looked up)
chain: REVLVPEGPLYRVAGTAVSISCNVTGYEGPAQQNFEWFLYRPEAPDTALGIVSTKDTQFSYAVFKSRVVAGEVQVQRLQGDAVVLKIARLQAQDAGIYECHTPSTDTRYLGSYSGKVELRVL
notes: domain: D1; also called D1 (Ig-V set) ECD of IGSF8
B4: Antibody C30 (B34) (antibody, human IgG1, V domains shown)
VH: EVQLLESGGGLVQPGGSLRLSCAASGFTFSSYAMSWVRQAPGKGLEWVSGITGSGGSTYYADSVKGRFTISRDNSKNTLYLQMNSLRAEDTAVYYCARGRQVDKWGQGTLVTVSS
VL: DIMLTQSPSSLSASVGDRVTITCRASQSIHNYLNWIQQTPGKAPKLLVFAASTLQRGVPPRYSGRGSGTEFTLTISSLQPEDFATYYCQQSYTTPLTFGGGTKVEIRR
notes: Fully human, expressed in CHO cells; also called mAb-B34 (C30)
B5: KLRC1/KLRD1 heterodimeric receptor (receptor)
chain 1: not shown
chain 2: MAVFKTTLWRLISGTLGIICLSLMSTLGILLKNSFTKLSIEPAFTPGPNIELQKDSDCCSCQEKWVGYRCNCYFISSEQKTWNESRHLCASQKSSLLQLQNTDELDFMSSSQQFYWIGLSYSEEHTAWLWENGSALSQYLFPSFETFNTKNCIAYNPNGNALDESCEDKNRYICKQQLI
notes: whole, on cells; CT26 cells co-transduced with both lentiviral constructs; also called KLRC1&D1 heterodimer; KLRC1/D1

For assay [1], the target named is T1, recombinant human IGSF8 extracellular …. Briefly: flow cytometry, IGSF8-hFc on CT26 cells with single-domain KIR3DL1/2 constructs, MFI normalized to Thy1.1.
Assay [2] concerns the target B5. Briefly: flow cytometry, hFc fusion proteins on transduced CT26 cells, MFI normalized. As to the method:
(§1) For this experiment, different human KIR receptors (KIR2DL1, KIR2DL2, KIR2DL3, KIR2DL4, KIR2DL5A, KIR2DL5B, KIR3DL1, KIR3DL2, KIR3DL3) were first cloned into a proprietary lentiviral vector containing a thy1.1 tag (FIG. 17A). Then mouse CT26 cells, were transducted by these lentiviral constructs, and IGSF8 binding was tested with biotin-labelled recombinant IGSF8 hFc fusion protein. The mean fluorescence intensity (MFI) of IGSF8 binding to different CT26 cells were normalized by the expression of different KIRs on CT26 cells using an anti-thy1.1 mAb (Biolegend) via flow cytometry.
(§2) KLRC1 also contains a ITIM motif in its intracellular domain, and was known to be a inhibitory receptor of NK or CD8⁺ T cells as part of a heterodimer with KLRD1 on the cell surface. […] Specifically, 100,000 CT26 cells overexpressing the antigens (KIRs or KLRs) were washed with PBS buffer containing 2% FBS, and incubated with 100 μL IGSF8 recombinant proteins or antibodies (5 μg/mL) for 30 minutes on ice. Cells were then washed twice with wash buffer, and incubated with 100 μL of 1:100 anti-human Fc-PE antibody for 15 minutes on ice. Cells were washed twice with wash buffer and analyzed on a FACS analyzer (CytoFlex, Beckman). In these experiments, the mean fluorescence intensity (MFI) of IGSF8 binding to different CT26 cells were normalized by the expression of different KLRs on CT26 cells using an anti-thy1.1 mAb via flow cytometry.
A general note: In flow cytometry, cells or beads pass a laser one at a time.

Assay [3] concerns the target T4, KIR3DL1 (human, UniProt P43629 22-444).
T4 construct: whole, on cells; On mouse CT26 cells, lentiviral vector with a thy1.1 tag; also called KIR3DL1/2
The description is as above. As to the method: as §1, §2

The target of assay [4] is T5, KIR3DL2 (human, UniProt P43630 22-455).
T5 construct: whole, on cells; On mouse CT26 cells, lentiviral vector with a thy1.1 tag; also called KIR3DL1/2
The description is as above. As to the method:
as §1, §2

Assay [5] has as its target T2, IGSF8 protein without D1 domain. The assay is described as follows: flow cytometry, CT26 cells expressing IGSF8-D24 (IGSF8 without D1).
For assay [6], the target named is T1, recombinant human IGSF8 extracellular …. Briefly: flow cytometry, IGSF8-hFc on transduced CT26 cells, MFI normalized to Thy1.1 expression. As to the method: as §2
Assay [7] concerns the target T3, human IGSF8 expressed on the cell …. The assay is described as follows: cell-cell conjugate assay, labelled MC38 and CT26 cells mixed 1:1, flow cytometry. The text has this:
A competition assay (FIG. 23A) was then designed to test whether these seven mAbs block IGSF8 binding to the KIR3DL1/2 or the KLRC1&D1 heterodimer receptors. MC38 cells (a cell line derived from C57BL6 murine colon adenocarcinoma cells from NIH) with forced expression of IGSF8 protein on cell surface by lentiviral delivery of a human IGSF8-expression construct were labeled with CFSE (Carboxyfluorescein succinimidyi ester, Thermo). CT26 cells with forced expression of either KIR3DL1/2 or KLRC1&D1 were labeled with CellTrace Far Red (Thermo). The MC38 cells were then mixed at a 1:1 ratio with the CT26 cells for about an hour at room temperature. The formation of MC38 and CT26 cell/cell conjugates was assessed by flow cytometry.

T4 sequence (P43629 22-444): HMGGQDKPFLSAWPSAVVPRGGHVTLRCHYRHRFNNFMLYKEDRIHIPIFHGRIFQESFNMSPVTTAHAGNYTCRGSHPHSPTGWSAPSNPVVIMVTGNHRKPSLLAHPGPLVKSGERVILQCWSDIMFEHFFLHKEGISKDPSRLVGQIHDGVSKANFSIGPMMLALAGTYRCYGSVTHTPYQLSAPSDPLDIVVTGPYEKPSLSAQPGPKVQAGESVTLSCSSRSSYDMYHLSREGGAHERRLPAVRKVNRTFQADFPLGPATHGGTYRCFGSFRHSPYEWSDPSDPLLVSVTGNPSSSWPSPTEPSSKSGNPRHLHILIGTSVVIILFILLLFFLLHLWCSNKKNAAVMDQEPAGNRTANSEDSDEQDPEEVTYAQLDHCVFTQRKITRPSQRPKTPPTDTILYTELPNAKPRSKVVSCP
T5 sequence (P43630 22-455): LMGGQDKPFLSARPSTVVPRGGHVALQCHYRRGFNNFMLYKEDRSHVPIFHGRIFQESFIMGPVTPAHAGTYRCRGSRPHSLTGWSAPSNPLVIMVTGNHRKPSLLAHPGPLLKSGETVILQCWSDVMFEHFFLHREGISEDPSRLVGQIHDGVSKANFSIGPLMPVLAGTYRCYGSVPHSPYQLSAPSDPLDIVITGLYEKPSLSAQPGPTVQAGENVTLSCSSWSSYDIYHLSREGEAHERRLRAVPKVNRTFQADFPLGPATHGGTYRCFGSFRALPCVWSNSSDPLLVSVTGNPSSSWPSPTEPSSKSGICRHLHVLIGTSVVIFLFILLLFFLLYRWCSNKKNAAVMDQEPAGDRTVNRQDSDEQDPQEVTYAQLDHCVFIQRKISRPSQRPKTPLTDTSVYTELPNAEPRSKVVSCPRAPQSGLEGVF

With B1, the binding result in assay [1] is given as “no binding”.

As to B2, the binding result in assay [1] is “no binding”.

As to B3, the binding result in assay [2], in assay [3] and in assay [4] was “binds” in each case.

In the case of B4, in assay [5], the binding result is “no binding”.

Take B5: the binding result in assay [6] and in assay [7] was “binds” each time.
